The values below come from paper PMC3157743, “An Examination by Site-Directed Mutagenesis of Putative Key Residues in the Determination of Coenzyme Specificity in Clostridial NAD^+-Dependent Glutamate Dehydrogenase” (Enzyme Research, 2011).

Holding throughout (assay): initial rates, A340 decrease or fluorescence
Type in all cases: biochemical, [Clostridium] symbiosum
What all share (conditions): 20 mM 2-oxoglutarate, 100 mM NH4Cl, 0.1 M potassium phosphate pH 7.0, 25 °C

Data set [1] has as its system T1, NC(=O)C1=CN([C@@H]2O[C@H](COP(=O)(O)OP(=O)(O)OC[C@H]3O[C@@H](n4cnc5c(N)ncnc54)[C@H](O)[C@@H]3O)[C@@H](O)[C@H]2O)C=CC1.
T1 construct: full-length recombinant wild-type gdh in ptac85, expressed in E. coli, purified on Remazol Red Sepharose; no tag mentioned
An excerpt:
(§1) initial rates, A340 decrease or fluorescence on Clostridium symbiosum NAD^+-specific GDH (CsGDH)

Data set [2] relates to T2, NC(=O)C1=CN([C@@H]2O[C@H](COP(=O)(O)OP(=O)(O)OC[C@H]3O[C@@H](n4cnc5c(N)ncnc54)[C@H](OP(=O)(O)O)[C@@H]3O)[C@@H](O)[C@H]2O)C=CC1.
T2 construct: full-length recombinant wild-type gdh in ptac85, expressed in E. coli, purified on Remazol Red Sepharose; no tag mentioned
Excerpt: as §1

Substrate in data set [3]: NC(=O)C1=CN([C@@H]2O[C@H](COP(=O)(O)OP(=O)(O)OC[C@H]3O[C@@H](n4cnc5c(N)ncnc54)[C@H](OP(=O)(O)O)[C@@H]3O)[C@@H](O)[C@H]2O)C=CC1
Excerpt: as §1

Substrate in data set [4]: NC(=O)C1=CN([C@@H]2O[C@H](COP(=O)(O)OP(=O)(O)OC[C@H]3O[C@@H](n4cnc5c(N)ncnc54)[C@H](O)[C@@H]3O)[C@@H](O)[C@H]2O)C=CC1
Excerpt: as §1

Usually Km stands for the substrate concentration at which the rate is half of its maximum. What is called kcat is the number of substrate molecules converted per active site and unit of time at saturation. By kcat/Km is commonly meant the second-order rate constant that governs catalysis at low substrate concentration. Consider “Clostridium symbiosum NAD^+-specific GDH (CsGDH) ([Clostridium] symbiosum; F239S/P263S)”, for which, in data set [1], the Michaelis-Menten constant (Km) worked out at 35 ± 10 µM, the kcat came to 105 ± 4 s⁻¹ and the kcat/Km stood at 3e+06 M⁻¹ s⁻¹. For the same molecule, in data set [2], the Km is 330 ± 20 µM, the kcat amounted to 83.3 ± 3.5 s⁻¹ and the kcat/Km stood at 252000 M⁻¹ s⁻¹.

With “Clostridium symbiosum NAD^+-specific GDH (CsGDH) ([Clostridium] symbiosum; F239S)”, in data set [1], the Michaelis-Menten constant (Km) is 40 ± 3 µM, the kcat came out at 139 ± 5 s⁻¹ and the kcat/Km was 3.48e+06 M⁻¹ s⁻¹. Besides, in data set [2], the Km worked out at 230 ± 50 µM, the kcat is 11.1 ± 0.21 s⁻¹ and the kcat/Km stood at 48300 M⁻¹ s⁻¹.

For “Clostridium symbiosum NAD^+-specific GDH (CsGDH) ([Clostridium] symbiosum; A243G)”, in data set [1], the Km stood at 25 ± 1 µM, the kcat is 65.1 ± 1.6 s⁻¹ and the kcat/Km is 2.6e+06 M⁻¹ s⁻¹. Moreover, in data set [2], the Km turned out to be 386 ± 50 µM, the catalytic constant (kcat) stood at 1.87 ± 0.01 s⁻¹ and the kcat/Km worked out at 4840 M⁻¹ s⁻¹.

Take “Clostridium symbiosum NAD^+-specific GDH (CsGDH) ([Clostridium] symbiosum; P263S)”: in data set [1], the Km was 47 ± 103 µM, the kcat was 160 ± 8 s⁻¹ and the kcat/Km amounted to 3.4e+06 M⁻¹ s⁻¹. Also, in data set [2], the Km was found to be 110 ± 10 µM, the kcat was 62.5 ± 1.6 s⁻¹ and the kcat/Km was found to be 568000 M⁻¹ s⁻¹.

As for “Clostridium symbiosum NAD^+-specific GDH (CsGDH) ([Clostridium] symbiosum; D264K)”, in data set [1], the Km came to 23 ± 2 µM, the catalytic constant (kcat) was 80 ± 2.5 s⁻¹ and the kcat/Km is 3.48e+06 M⁻¹ s⁻¹. Besides, in data set [2], the Km came to 107 ± 20 µM, the kcat was 26.3 ± 0.35 s⁻¹ and the specificity constant (kcat/Km) was found to be 246000 M⁻¹ s⁻¹.

B1: Clostridium symbiosum NAD^+-specific GDH (CsGDH) ([Clostridium] symbiosum) (protein)
chain: SKYVDRVIAEVEKKYADEPEFVQTVEEVLSSLGPVVDAHPEYEEVALLERMVIPERVIEFRVPWEDDNGKVHVNTGYRVQFNGAIGPYKGGLRFAPSVNLSIMKFLGFEQAFKDSLTTLPMGGAKGGSDFDPNGKSDREVMRFCQAFMTELYRHIGPDIDVPAGDLGVGAREIGYMYGQYRKIVGGFYNGVLTGKARSFGGSLVRPEATGYGSVYYVEAVMKHENDTLVGKTVALAGFGNVAWGAAKKLAELGAKAVTLSGPDGYIYDPEGITTEEKINYMLEMRASGRNKVQDYADKFGVQFFPGEKPWGQKVDIIMPCATQNDVDLEQAKKIVANNVKYYIEVANMPTTNEALRFLMQQPNMVVAPSKAVNAGGVLVSGFEMSQNSERLSWTAEEVDSKLHQVMTDIHDGSAAAAERYGLGYNLVAGANIVGFQKIADAMMAQGIAW
notes: full-length recombinant wild-type gdh in ptac85, expressed in E. coli, purified on Remazol Red Sepharose; no tag mentioned
As to B1, in data set [3], the Km amounted to 90 ± 11 µM, the kcat amounted to 2.87 ± 0.11 s⁻¹ and the kcat/Km was found to be 31900 M⁻¹ s⁻¹. In addition, in data set [4], the Km came out at 20 ± 1 µM, the turnover number (kcat) worked out at 130.2 ± 3.1 s⁻¹ and the kcat/Km was determined as 6.5e+06 M⁻¹ s⁻¹.
